T1: HepG2 cells (which express ASGR1) (Homo sapiens, UniProt P07306)
T1 construct: endogenous in cells; host or cells: HepG2
T1 sequence (P07306 1-291): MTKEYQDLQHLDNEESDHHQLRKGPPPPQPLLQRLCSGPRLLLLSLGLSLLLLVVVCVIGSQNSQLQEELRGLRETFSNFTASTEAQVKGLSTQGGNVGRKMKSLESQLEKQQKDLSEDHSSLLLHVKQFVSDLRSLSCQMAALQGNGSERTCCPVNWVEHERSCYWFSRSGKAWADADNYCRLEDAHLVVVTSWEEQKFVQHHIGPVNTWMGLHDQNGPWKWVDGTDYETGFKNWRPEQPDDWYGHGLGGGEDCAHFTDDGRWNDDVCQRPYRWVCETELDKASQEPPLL


Biological target: T1, HepG2 cells (which express ASGR1)
Test: Guava HepG2 cell binding screen of humanized anti-ASGR1 clones
Set-up: unit not given here
Details: humanized G2D clones (Table 5); two numbers per cell, not explained
Experimental: Hybridomas producing monoclonal antibodies (mAbs) specific for human ASGR1 were prepared from Balb/C mice immunized with ASGR1-AviHis at a service provider using their propriety protocol. Antibody heavy and light chain sequences were obtained, amplified, and cloned. Clone supernatants containing the expressed mAbs were screened for binding to a human ASGR1-IgG1Fc fusion protein, and those with a positive signal as measured by enzyme linked immunosorbent assay (ELISA) were screened for cell binding on HepG2 cells (which express ASGR1).

| Molecule | Guava HepG2 Screen |
| --- | --- |
| hzG2D-29: humanized G2D clone; "G2D VL region ... of clones 1-16, 19-21, 26-29, 31, and 33 ... grafted into the human germline sequence VKI-L1 with JK4" (antibody, V domains shown, Synthetic sequence hzG2.49D VH R38K, R66K, V67A, T68S, I69L, R71V, A93T, R94S; Synthetic sequence hzG2D VLa) VH: QVQLVQSGAEVKKPGASVKVSCKASGYTFTGYYMHWVKQAPGQRLEWMGRINPNNGATNYNQNFKDKASLTVDTSASTAYMELSSLRSEDTAVYYCTSVNFYYWGQGTTVTVSS VL: DIQMTQSPSSLSASVGDRVTITCKASQVINSYLSWFQQKPGKAPKSLIYRANTLVDGVPSRFSGSGSGTDFTLTISSLQPEDFATYYCLQYAEFPYTFGGGTKVEIK | 189/108 |
| hzG2D-1: humanized G2D clone; "G2D VL region ... of clones 1-16, 19-21, 26-29, 31, and 33 ... grafted into the human germline sequence VKI-L1 with JK4" (antibody, V domains shown, Synthetic sequence hzG2D VH V109L; Synthetic sequence hzG2D VLa) VH: QVQLVQSGAEVKKPGASVKVSCKASGYTFTGYYMHWVRQAPGQRLEWMGRINPNNGATNYNQNFKDRVTITRDTSASTAYMELSSLRSEDTAVYYCARVNFYYWGQGTTLTVSS VL: DIQMTQSPSSLSASVGDRVTITCKASQVINSYLSWFQQKPGKAPKSLIYRANTLVDGVPSRFSGSGSGTDFTLTISSLQPEDFATYYCLQYAEFPYTFGGGTKVEIK | 32/19 |
| hzG2D-30: humanized G2D clone; "G2D VL region ... of clones 22, 23, 30, 32, and 34-37 ... grafted into the human germline sequence VKI-O2 with JK4" (antibody, V domains shown, Synthetic sequence hzG2.49D VH R38K, R66K, V67A, T68S, I69L, R71V, A93T, R94S; Synthetic sequence hzG2D VLb) VH: QVQLVQSGAEVKKPGASVKVSCKASGYTFTGYYMHWVKQAPGQRLEWMGRINPNNGATNYNQNFKDKASLTVDTSASTAYMELSSLRSEDTAVYYCTSVNFYYWGQGTTVTVSS VL: DIQMTQSPSSLSASVGDRVTITCKASQVINSYLSWYQQKPGKAPKLLIYRANTLVDGVPSRFSGSGSGTDFTLTISSLQPEDFATYYCLQYAEFPYTFGGGTKVEIK | 198/115 |

Continued, values first:

| Guava HepG2 Screen | Molecule |
| --- | --- |
| 167/103 | hzG2D-32: humanized G2D clone; "G2D VL region ... of clones 22, 23, 30, 32, and 34-37 ... grafted into the human germline sequence VKI-O2 with JK4" (antibody, V domains shown, Synthetic sequence hzG2.50D VH R66K, V67A, T68S, I69L, R71V, L82F, S82aH, A93T, R94S; Synthetic sequence hzG2D VLb) VH: QVQLVQSGAEVKKPGASVKVSCKASGYTFTGYYMHWVRQAPGQRLEWMGRINPNNGATNYNQNFKDKASLTVDTSASTAYMEFHSLRSEDTAVYYCTSVNFYYWGQGTTVTVSS VL: DIQMTQSPSSLSASVGDRVTITCKASQVINSYLSWYQQKPGKAPKLLIYRANTLVDGVPSRFSGSGSGTDFTLTISSLQPEDFATYYCLQYAEFPYTFGGGTKVEIK |
| 168/95 | hzG2D-31: humanized G2D clone; "G2D VL region ... of clones 1-16, 19-21, 26-29, 31, and 33 ... grafted into the human germline sequence VKI-L1 with JK4" (antibody, V domains shown, Synthetic sequence hzG2.50D VH R66K, V67A, T68S, I69L, R71V, L82F, S82aH, A93T, R94S; Synthetic sequence hzG2D VLa) VH: QVQLVQSGAEVKKPGASVKVSCKASGYTFTGYYMHWVRQAPGQRLEWMGRINPNNGATNYNQNFKDKASLTVDTSASTAYMEFHSLRSEDTAVYYCTSVNFYYWGQGTTVTVSS VL: DIQMTQSPSSLSASVGDRVTITCKASQVINSYLSWFQQKPGKAPKSLIYRANTLVDGVPSRFSGSGSGTDFTLTISSLQPEDFATYYCLQYAEFPYTFGGGTKVEIK |
